# Test results from US20220372111A1.
# Key:
# [1] = molecular target: LDL receptor-related protein 1 (LRP1), purified from human placenta (human) (UniProt Q07954); assay: SPR equilibrium KD relative to I91L PAI-1
# [2] = molecular target: LDL receptor-related protein 1 (LRP1), purified from human placenta (human) (UniProt Q07954); assay: SPR equilibrium analysis, LRP1 immobilised
# UniProt Q07954, sequence (Q07954 20-4544): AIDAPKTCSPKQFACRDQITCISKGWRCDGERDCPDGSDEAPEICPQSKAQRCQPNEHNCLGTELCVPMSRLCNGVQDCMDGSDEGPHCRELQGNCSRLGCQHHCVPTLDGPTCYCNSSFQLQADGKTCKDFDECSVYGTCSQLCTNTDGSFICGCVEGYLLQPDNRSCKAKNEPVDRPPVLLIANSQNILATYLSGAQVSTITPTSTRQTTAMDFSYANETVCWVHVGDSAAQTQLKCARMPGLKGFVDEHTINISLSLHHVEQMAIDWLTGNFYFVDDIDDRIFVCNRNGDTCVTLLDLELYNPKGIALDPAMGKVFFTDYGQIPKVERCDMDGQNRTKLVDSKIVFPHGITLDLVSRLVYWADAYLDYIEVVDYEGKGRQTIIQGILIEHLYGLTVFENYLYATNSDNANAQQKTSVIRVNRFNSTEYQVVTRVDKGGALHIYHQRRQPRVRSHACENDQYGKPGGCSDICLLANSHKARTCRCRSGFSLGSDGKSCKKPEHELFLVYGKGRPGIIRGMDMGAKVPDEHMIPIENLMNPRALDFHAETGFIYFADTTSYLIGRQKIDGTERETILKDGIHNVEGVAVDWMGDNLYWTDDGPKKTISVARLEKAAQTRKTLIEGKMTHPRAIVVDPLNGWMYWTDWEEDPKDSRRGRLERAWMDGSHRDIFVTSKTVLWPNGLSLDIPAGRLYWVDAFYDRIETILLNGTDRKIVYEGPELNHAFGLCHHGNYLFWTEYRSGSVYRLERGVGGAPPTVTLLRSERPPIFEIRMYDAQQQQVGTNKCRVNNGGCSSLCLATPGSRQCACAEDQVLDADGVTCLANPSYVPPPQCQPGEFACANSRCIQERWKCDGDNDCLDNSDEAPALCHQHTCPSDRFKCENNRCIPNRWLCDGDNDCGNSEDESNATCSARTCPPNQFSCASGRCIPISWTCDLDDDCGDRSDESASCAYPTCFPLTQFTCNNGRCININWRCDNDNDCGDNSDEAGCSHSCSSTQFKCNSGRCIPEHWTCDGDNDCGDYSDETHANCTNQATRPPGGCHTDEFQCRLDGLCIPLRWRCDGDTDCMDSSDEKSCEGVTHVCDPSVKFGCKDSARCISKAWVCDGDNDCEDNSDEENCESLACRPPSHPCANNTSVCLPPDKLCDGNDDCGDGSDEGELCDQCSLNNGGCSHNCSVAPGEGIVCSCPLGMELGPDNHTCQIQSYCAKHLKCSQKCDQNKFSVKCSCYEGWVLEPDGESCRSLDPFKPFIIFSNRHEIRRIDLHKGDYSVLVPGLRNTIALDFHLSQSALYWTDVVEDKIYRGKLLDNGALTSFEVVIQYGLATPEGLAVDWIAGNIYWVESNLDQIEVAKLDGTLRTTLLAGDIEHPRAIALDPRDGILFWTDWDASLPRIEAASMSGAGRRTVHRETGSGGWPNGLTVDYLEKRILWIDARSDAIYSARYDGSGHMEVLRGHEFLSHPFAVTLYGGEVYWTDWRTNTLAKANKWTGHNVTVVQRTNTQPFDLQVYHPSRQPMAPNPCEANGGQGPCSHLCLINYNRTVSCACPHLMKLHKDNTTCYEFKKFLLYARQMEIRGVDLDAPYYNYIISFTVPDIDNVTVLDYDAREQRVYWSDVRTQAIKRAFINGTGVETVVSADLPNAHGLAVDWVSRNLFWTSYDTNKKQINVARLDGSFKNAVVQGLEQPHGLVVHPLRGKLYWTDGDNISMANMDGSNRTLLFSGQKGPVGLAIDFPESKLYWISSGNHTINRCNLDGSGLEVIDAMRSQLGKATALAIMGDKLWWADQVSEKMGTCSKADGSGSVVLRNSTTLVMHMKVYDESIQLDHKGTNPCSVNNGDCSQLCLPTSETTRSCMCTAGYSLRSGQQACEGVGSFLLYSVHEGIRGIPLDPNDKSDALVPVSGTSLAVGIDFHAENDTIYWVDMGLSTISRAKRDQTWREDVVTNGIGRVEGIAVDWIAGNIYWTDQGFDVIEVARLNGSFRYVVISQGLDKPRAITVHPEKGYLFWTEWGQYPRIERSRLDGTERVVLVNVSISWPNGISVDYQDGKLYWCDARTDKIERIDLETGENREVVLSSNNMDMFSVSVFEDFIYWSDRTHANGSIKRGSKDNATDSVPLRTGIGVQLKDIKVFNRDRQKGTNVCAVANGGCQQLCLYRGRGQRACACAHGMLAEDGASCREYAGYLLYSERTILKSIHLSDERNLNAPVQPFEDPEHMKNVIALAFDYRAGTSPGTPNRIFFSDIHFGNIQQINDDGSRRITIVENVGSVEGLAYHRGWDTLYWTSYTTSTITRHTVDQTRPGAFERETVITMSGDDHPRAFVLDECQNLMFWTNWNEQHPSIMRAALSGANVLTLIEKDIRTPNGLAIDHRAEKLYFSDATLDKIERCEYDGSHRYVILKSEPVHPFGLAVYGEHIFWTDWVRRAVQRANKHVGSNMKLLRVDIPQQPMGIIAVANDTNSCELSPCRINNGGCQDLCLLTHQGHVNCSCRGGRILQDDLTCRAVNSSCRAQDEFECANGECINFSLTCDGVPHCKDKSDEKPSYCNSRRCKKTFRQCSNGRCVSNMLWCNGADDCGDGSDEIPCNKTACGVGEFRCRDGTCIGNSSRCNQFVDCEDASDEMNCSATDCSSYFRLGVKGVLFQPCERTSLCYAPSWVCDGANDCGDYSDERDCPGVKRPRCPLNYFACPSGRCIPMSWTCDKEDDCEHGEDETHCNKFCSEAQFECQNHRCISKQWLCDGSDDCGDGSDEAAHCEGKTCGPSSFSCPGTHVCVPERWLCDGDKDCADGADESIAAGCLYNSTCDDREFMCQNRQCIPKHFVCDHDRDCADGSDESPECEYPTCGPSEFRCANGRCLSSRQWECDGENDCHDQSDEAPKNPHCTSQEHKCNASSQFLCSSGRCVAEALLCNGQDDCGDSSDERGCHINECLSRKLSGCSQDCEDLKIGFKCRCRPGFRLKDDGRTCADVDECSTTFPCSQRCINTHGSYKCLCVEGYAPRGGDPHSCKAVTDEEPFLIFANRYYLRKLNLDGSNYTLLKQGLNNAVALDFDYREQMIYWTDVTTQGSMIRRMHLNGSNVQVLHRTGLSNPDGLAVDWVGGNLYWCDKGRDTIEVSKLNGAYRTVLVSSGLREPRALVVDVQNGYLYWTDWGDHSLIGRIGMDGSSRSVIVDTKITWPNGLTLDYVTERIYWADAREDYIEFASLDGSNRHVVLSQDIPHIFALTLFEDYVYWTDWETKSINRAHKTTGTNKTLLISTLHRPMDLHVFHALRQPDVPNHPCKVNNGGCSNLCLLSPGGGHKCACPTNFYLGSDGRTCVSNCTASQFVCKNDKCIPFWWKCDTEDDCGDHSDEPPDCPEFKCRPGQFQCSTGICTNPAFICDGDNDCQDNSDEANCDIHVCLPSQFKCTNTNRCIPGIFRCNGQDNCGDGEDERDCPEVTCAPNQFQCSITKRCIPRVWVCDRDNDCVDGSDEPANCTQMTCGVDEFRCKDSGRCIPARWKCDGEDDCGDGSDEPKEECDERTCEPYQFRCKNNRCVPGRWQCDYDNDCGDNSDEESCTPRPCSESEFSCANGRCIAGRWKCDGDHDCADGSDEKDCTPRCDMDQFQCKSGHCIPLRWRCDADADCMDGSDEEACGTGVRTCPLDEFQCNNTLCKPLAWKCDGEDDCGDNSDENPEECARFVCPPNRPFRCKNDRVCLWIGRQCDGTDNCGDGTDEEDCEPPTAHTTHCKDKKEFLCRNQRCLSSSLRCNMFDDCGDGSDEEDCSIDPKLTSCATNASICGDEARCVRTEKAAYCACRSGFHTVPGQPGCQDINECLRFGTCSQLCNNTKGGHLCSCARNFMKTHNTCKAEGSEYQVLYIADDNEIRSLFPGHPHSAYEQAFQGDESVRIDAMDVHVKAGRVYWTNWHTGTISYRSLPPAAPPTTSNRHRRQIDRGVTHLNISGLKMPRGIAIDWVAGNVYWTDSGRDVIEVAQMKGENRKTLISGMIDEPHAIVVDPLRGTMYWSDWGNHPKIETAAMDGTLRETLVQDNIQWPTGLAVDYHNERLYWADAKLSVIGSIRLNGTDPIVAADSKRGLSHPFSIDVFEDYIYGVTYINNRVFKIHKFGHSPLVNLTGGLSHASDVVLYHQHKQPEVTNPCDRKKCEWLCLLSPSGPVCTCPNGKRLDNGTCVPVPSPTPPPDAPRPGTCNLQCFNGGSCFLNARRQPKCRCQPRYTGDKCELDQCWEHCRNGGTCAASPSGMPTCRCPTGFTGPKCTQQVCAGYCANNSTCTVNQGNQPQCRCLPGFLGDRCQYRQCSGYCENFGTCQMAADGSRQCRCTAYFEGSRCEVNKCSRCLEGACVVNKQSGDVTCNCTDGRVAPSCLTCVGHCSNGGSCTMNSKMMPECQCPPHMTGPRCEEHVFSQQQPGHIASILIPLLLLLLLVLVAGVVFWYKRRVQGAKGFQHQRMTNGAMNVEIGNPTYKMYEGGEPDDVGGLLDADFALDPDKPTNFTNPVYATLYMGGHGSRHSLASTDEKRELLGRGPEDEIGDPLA
substance,measurement,setting,value
14-1B R76E PAI-1 (from UniProt P05121 24-402),Fold change,[1],32 fold
same,Kd,[2],1770 nM
